Data published in publication PMC11401910, “Dual client binding sites in the ATP-independent chaperone SurA” (Nature Communications, 2024).
Each block holds one binder with its values, some of them ahead of it.

Legend:
Conditions in all cases: both partners purified
SurA-WT [1] = biological target: T1, SurA-WT (E. coli, UniProt P0ABZ6 21-428); assay: NMR titration; methyl-TROSY (2D 1H-13C SOFAST-HMQC) of Ile/Met 13CH3-labelled SurA-WT, single point: 5 µM SurA and 5 µM unfolded OMP; 5 mM EDTA, 20 mM Tris-HCl, pH 8.0, 0.8 M urea, 25 °C; peak intensities and CSPs
T1 construct: no cleavage step is described; For NMR the protein was made in D2O medium with 13C labels on Ile delta1 and Met epsilon methyls; also called wild-type SurA; apo-SurA; source: E. coli BL21(DE3), purified (HisTrap, dialysis)
T1 sequence (looked up): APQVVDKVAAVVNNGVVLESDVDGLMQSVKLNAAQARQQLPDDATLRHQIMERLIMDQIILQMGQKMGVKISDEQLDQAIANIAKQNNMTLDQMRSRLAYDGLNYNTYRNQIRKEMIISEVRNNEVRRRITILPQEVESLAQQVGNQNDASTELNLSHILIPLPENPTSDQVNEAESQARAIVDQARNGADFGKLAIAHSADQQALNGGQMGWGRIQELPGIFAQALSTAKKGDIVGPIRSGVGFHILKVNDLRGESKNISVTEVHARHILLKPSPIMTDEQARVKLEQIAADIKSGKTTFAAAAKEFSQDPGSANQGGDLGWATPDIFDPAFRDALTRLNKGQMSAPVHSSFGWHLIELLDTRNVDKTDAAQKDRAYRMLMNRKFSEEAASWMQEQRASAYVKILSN

SurA-core [2] = biological target: T2, SurA-core (E. coli, UniProt P0ABZ6 21-428, deleting codons for residues 172–389); assay: FRET or BRET; single-molecule FRET (pulsed interleaved excitation) between donor and acceptor on the two termini of unfolded OmpX (~75 pM) with 30 μM SurA-WT or SurA-core; 20 mM Tris-HCl, 0.1 M urea, 0.02% Tween-20, 1 mM aged Trolox, pH 8.0, ~21 °C; binding is read from the change of the client's own FRET distribution
T2 construct: gene numbering including the signal peptide; no cleavage step described; also called core domain; construct lacking both PPIase domains; source: E. coli BL21(DE3), purified (HisTrap, dialysis)
T2 sequence (looked up): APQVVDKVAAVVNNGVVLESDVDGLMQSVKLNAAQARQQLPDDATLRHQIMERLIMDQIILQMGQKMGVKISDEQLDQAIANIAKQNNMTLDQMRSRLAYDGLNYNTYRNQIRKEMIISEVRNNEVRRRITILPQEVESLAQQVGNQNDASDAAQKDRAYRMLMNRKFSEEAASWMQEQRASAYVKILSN

SurA-WT [3] = biological target: T1, SurA-WT; assay: as above
SurA-core [4] = biological target: T2, SurA-core; assay: MST; 100 nM Alexa Fluor 488-labelled tBamA or OmpX, SurA-WT or SurA-core in serial dilution (40 μM–1.2 nM for tBamA, 12.5 μM–3 nM for OmpX); 0.8 M urea, 20 mM Tris-HCl, pH 8.0, 25 °C; fitted to a Hill equation, apparent Kd
SurA-WT [5] = biological target: T1, SurA-WT; assay: as above

B2: OmpX (natural protein, UniProt P0A917 24-171, looked up)
chain: ATSTVTGGYAQSDAQGQMNKMGGFNLKYRYEEDNSPLGVIGSFTYTEKSRTASSGDYNKNQYYGITAGPAYRINDWASIYGVVGVGYGKFQTTEYPTYKHDTSDYGFSYGAGLQFNPMENVALDFSYEQSRIRSVDVGTWIAGVGYRF
notes: Unfolded client in the assay (0.8 M urea); Cloned at the NdeI site, so a start Met probably precedes residue 24; also called unfolded OmpX; full-length OmpX; source: E. coli BL21[DE3], inclusion bodies, purified in 6 M Gdn-HCl (Superdex 75)
binding result (SurA-WT [1]): binds

B4: Cys-OmpX-Cys labelled with Alexa Fluor 488 and ATTO 565 (natural protein)
chain: MGSCATSTVTGGYAQSDAQGQMNKMGGFNLKYRYEEDNSPLGVIGSFTYTEKSRTASSGDYNKNQYYGITAGPAYRINDWASIYGVVGVGYGKFQTTEYPTYKHDTSDYGFSYGAGLQFNPMENVALDFSYEQSRIRSVDVGTWIAGVGYRFC
modifications: Alexa Fluor 488 and ATTO 565 via maleimide on the N- and C-terminal Cys residues (stochastic labelling)
notes: additional C-terminal Cys residue; Unfolded client in 0.1 M urea; also called OmpX (smFRET); FRET-labelled OmpX; source: E. coli BL21[DE3], inclusion bodies, purified; labelled by maleimide chemistry
binding result (SurA-core [2]): binds
binding result (SurA-WT [3]): binds

Results, then the binder that gave them:

binding result (SurA-WT [1]): binds
B1: tOmpA (domain or fragment, UniProt P0A910 22-192, looked up)
chain: APKDNTWYTGAKLGWSQYHDTGFINNNGPTHENQLGAGAFGGYQVNPYVGFEMGYDWLGRMPYKGSVENGAYKAQGVQLTAKLGYPITDDLDIYTRLGGMVWRADTKSNVYGKNHDTGVSPVFAGGVEYAITPEIATRLEYQWTNNIGDAHTIGTRPDNGMLSLGVSYRFG
notes: Unfolded client (0.8 M urea); source: E. coli BL21[DE3], inclusion bodies, purified in 6 M Gdn-HCl (Superdex 75)

binding result (SurA-WT [1]): binds
B3: OmpF (natural protein, UniProt P02931 23-362, looked up)
chain: AEIYNKDGNKVDLYGKAVGLHYFSKGNGENSYGGNGDMTYARLGFKGETQINSDLTGYGQWEYNFQGNNSEGADAQTGNKTRLAFAGLKYADVGSFDYGRNYGVVYDALGYTDMLPEFGGDTAYSDDFFVGRVGGVATYRNSNFFGLVDGLNFAVQYLGKNERDTARRSNGDGVGGSISYEYEGFGIVGAYGAADRTNLQEAQPLGNGKKAEQWATGLKYDANNIYLAANYGETRNATPITNKFTNTSGFANKTQDVLLVAQYQFDFGLRPSIAYTKSKAKDVEGIGDVDLVNYFEVGATYYFNKNMSTYVDYIINQIDSDNKLGVGSDDTVAVGIVYQF
notes: as for B1

binding result (SurA-core [4]): binds
binding result (SurA-WT [5]): binds
B5: Cys-OmpX labelled with Alexa Fluor 488 (natural protein)
chain: MGSCATSTVTGGYAQSDAQGQMNKMGGFNLKYRYEEDNSPLGVIGSFTYTEKSRTASSGDYNKNQYYGITAGPAYRINDWASIYGVVGVGYGKFQTTEYPTYKHDTSDYGFSYGAGLQFNPMENVALDFSYEQSRIRSVDVGTWIAGVGYRF
modifications: Alexa Fluor 488 on the N-terminal Cys
notes: lacks the C-terminal Cys of Cys-OmpX-Cys; The MST methods say only 'Alexa Fluor 488-labelled OmpX'; also called Alexa Fluor 488-labelled OmpX; OmpX (MST); source: E. coli BL21[DE3], inclusion bodies, purified; labelled by maleimide chemistry
